Experimental data: the domain aggregation screens of Martell et al. (2025)

Assay: soluble fraction after stress (log2 fold change); higher = more stays soluble; pooled small domains, quantitative proteomics
Settings: stress: pH 4
How it was run: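 After pH 4 stress, pooled custom libraries of small protein domains were quantified with high-throughput quantitative proteomics. Aggregation propensity is taken from the fold change in each domain's soluble amount following the acid stress. The scale is log2, where higher values mean more stayed soluble.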

“HMQTNEAIINQAVQAAEAQNITTRSQAVDALKANGMTEAQARQLAVQRGISYDQLINELFPME” and “HMQTPVTVGDTMPNLIGTPKRLLLELLNRTDITVKLTGDGYVTAQSPAAGTPIAKGMIIELSL” are within 0.2 log units of each other in “soluble fraction (log2)” value: 0.108 for the first, 0.19 for the second.

Going from “HMQTQVEVLVKYVLEDGTVYKEDKVSADIGAILDSGDLPMLSNDMKFIDDFLFYEVKESDNVIERKVAKLV” to “HMQTQYIVDTKTTLLVRTGPGKSNSQFGRLKNGETINVYAIKNGWAEISYNGKTGYVSEQYIKLA”, the “soluble fraction (log2)” value rises from -1.41 to 0.327.

“HMQTTDTGAIETIVDELMAANPDKVEAYRGGKTGLQGFFMGQVMKQLGGQGNPKVISAIVTEKLE” and “HMQTTPAGHELLIRYFANGNIRERGMMKDGKRNGIWIFYDESGMEIRKTKYKMGKIISDYDLN” are within 0.2 log units of each other in “soluble fraction (log2)” value: 0.257 for the first, 0.0593 for the second.

Going from “HMQTTQQLIRNLRLKQAATLLADKRHSITEVATLTGFTHPTYFATAFREMFGVSPSEYMEQHI” to “HMQTYNQLKRGMTEWIQAGQKQKAYELFAGVAGQLSLSSAAGKKQYNELVTILNRAGFGIPLE”, the “soluble fraction (log2)” value rises from 0.126 to ≥ 0.43.

Going from “HMQVEMVLSQEAHEWLLQRGFIPEYGAREMDRVIAAHLKPLLMREILFGTLKAGGKVRVQVENGALKLQP” to “HMQVLSESDVEDIKAISGGDKAYDNLMEWAGSKLSKQDAKDYDDVLATGNKTAITFAVKALMAQYENAN”, the “soluble fraction (log2)” value rises from -1.74 to -1.05.

First: HMQVPFGFQRNPSTGTLEEKAEEQLIINQVLSLKNSGIGVSEISKRLGELSVSRIYRIINTAKKNAS
Second: HMQVSDANQLTDVVKSIIKQYPVEVEKYKSGKKALFGFFMGKVMENLKGKSNPKILKNVLTEILD
The “soluble fraction (log2)” value of the first is lower: -0.107 for the first, 0.263 for the second.

Going from “HMQVSDTNTLEQFAKEVIEANPKAVEDYHQNPLAIGFLVGQLMKVSKGSANPQTGKEILEKLL” to “HMQVSDVTTIRALVEEVLSSSPQQLAQYRAGKLSLKGYFVGQVMKKGKGQLNAAAVNNLLDEIL”, the “soluble fraction (log2)” value rises from -0.185 to 0.36.

Going from “HMQVSEQVQRLLDALENDTLTTKELMDRLGLKHRPTFRKNYLLPSMKLGLVEMTIPDKPNSSRQKYRRRQ” to “HMQVTEVDYGTFMKMVEEKNVGEVEVGNSMIVFTDKDGKAIYKTGAMNDPNLTERLYNAGASFTKE”, the “soluble fraction (log2)” value falls from 0.00707 to -0.209.

Compared with “HMQVTGLTAENAHRVTMIREKGTDHPPVPFHFRKEHHGTGNYVHLYGNPEDRNELHSRDFKDWEAVAFK”, “HMQVVDWSQVDKEDYLLATKRRAVSTGELKFLLLNNLTYDLTQTRFFKGMDASYYYEGYNLYQTGE” is lower in “soluble fraction (log2)” value: 0.319 for the first, -0.693 for the second.

“HMQWGKVRRLPSGRYQASYVHKGTRYTAPETYTVQGRAHGWIESERRLIVTDTWTPPDTRPS” and “HMQWLDSIRSRLRVGQTISYFEPRENASSSGLIIELRRKRVLVLEIATQKRWLIEYAAINVDG” are within 0.2 log units of each other in “soluble fraction (log2)” value: -0.202 for the first, -0.325 for the second.

Going from “HMQWQPSEEAMQRLEQHGIPRAFSFSQLDAFVLQGQEQGSNRNDWNTRFFRFIKNQWVYAQN” to “HMQYDSYTVEEPAKLLDWLLAHLRQSRTKIKATLQGHGIKVNGKTVTQFDYPLEPGMKIRVSLTK”, the “soluble fraction (log2)” value rises from -1.17 to -0.622.

“HMQYKTRVINLSILEVGMVLGRDLINKDGKIIVKKDVAISDFLKDHLIGLSKIKEIEPQIYIKV” and “HMQYSIQVNKLLKAMREDVWYTANEILDLLKLKSKETLRKNYLDPAINNKLIILELPDKPTSRNQRYKI” are within 0.2 log units of each other in “soluble fraction (log2)” value: -0.452 for the first, -0.289 for the second.

First: HMQYTQKTMYINDSYVNLRKSASTSSDIIMVVELNTKLTVIGEDGDWYKVKTSSGNAYVLKTLLSNEKKET
Second: HMQYTTDEVRERVLSVLNQLLLRWIVREGKDMFNIQANAVEISEGIKGELNTELEKIGLAATGFQIDSV
The “soluble fraction (log2)” value of the first is higher: -0.368 for the first, -0.678 for the second.

Going from “HMRADRLISMLMLLQARGKITAEELAVELGVSQRTIYRDIEALSFAGVPVYAERGPGGGIGLLEPY” to “HMRAEPNSNYSLAIIYKNRYDIAVKKKDAVKEVEYGKMVYEYLNKYVVLSGNKSAKYKKILNYFSSY”, the “soluble fraction (log2)” value rises from -1.21 to -0.445.

Going from “HMRAFTPSEAQVAHARRVMEAFWQHQREGHGAFALDGKMVDAPIVKAAARVLARAGLQDPNHPIHLA” to “HMRALPFSFANRHGVLIREISDGVAHAVYRIGSSPLGLAEARRFVGMPLMLTPVAREAFDSLLQQTYEQG”, the “soluble fraction (log2)” value falls from 0.0106 to -0.612.

“HMRAPEIEAARSDLDVGQTVQIVRHLHGNQYEVFYRGAQWQAEAVGSSGANDAQTAVITGKNGNILLIQI” and “HMRAVPTKLAPFVEVLKAMLEADGHRPKAQRRTAKALHLELISRGYAGGYTRLTDYIRDWRQQQG” are within 0.2 log units of each other in “soluble fraction (log2)” value: -0.297 for the first, -0.411 for the second.

First: HMRDANYFINPIHEWQKRYEALRASFVDRLPAQAVAQRFGYTITYIHLLRHQFKSGKIDFSEPVPEG
Second: HMRDFTQPQTASIGPRMREALARGTMTVEELREQFRTQEFPHESVRTAFLEELERVAAELGLA
The “soluble fraction (log2)” value of the first is lower: -1.91 for the first, -1.62 for the second.

Going from “HMRDISTDTSAWTFQDIKRYYDPQDLLTEKQVGQALSLIKGRNLNPLLNEVYIVAYKKKNGGAEFSLIV” to “HMRDPLNTGFRQTLKDIVNSLPKNELYSPGVREEYIYPKIGVTSLGMEASMVLNGLISSRRKNIELKEKN”, the “soluble fraction (log2)” value rises from -0.286 to 0.179.

First: HMRDPVDKDNYLGDWDKNKTYPAGYVMTFGDKNYLALQEVPAGTKPGATDPDPFWVLDTGKTLKD
Second: HMRDQARQFFIDTWAKFQRHDALTPLEEKTAAIIALHPEYHRVLQNPESFITTDWRPESGDINPFMHL
The “soluble fraction (log2)” value of the first is higher: 0.163 for the first, -0.803 for the second.
